The subject of data set [1] is 2G12 (anti-HIV gp120 broadly neutralizing antibody). Kind of data set: filter. Particulars: 2'-F pyrimidines, every U is 2'-F-5-ethynyl-U clicked to Man9-cyclohexyl azide (3 glycans).
For data set [2] the test system is unchanged. Description: pulldown. Particulars: 2'-F pyrimidines, qPCR bead assay as glyco-RNA/DNA hybrid. A general note: Quantitative PCR measures a nucleic acid by following its amplification.
For data set [3] the test system is unchanged. Kind of data set: FP filter. The following applies: 2'-F pyrimidines; every U is 2'-F-5-ethynyl-U clicked to Man9-cyclohexyl azide (4 glycans); nitrocellulose filter binding, 32P RNA not gel purified; 20 mM Tris pH 7.5, 150 mM NaCl, 2 mM MgSO4; Fbmax 7.0%.

For “GGAGAGAAGGAGGGAAGAGAGAAAAAAAAAAGCGCCCAGGUGAUUGGGCGCAAGCGACACAAAGCCCGG [15F3-M1-Mod]”, in data set [1] (gel purified and refolded, Fbmax 51%), the dissociation constant (Kd) was determined as 36 nM.

As to “GGAGAGAAGGAGGGAAGAGAGAAAAAAUCGACGGAACAGGGGCCCCCUGUGGAAAGCGACACAAAGCCCGG [15F1]”, the dissociation constant (Kd) amounted to 40 nM in data set [2] (every U is 2'-F-5-ethynyl-U clicked to Man9-cyclohexyl azide (3 glycans), room temperature, Fbmax 7.9%) and 40 nM in data set [1] (20 mM Tris pH 7.5, 150 mM NaCl, 2 mM MgSO4, not gel purified, Fbmax 23%).

As to “GGAGAGAAGGAGGGAAGAGAGAAAAAAAACAGAGGGAACCCAGGUGAUUGGGGCAAGCGACACAAAGCCCGG [15F3-M1]”, the Kd in data set [2] (every U is 2'-F-5-ethynyl-U clicked to Man9-cyclohexyl azide (3 glycans), Fbmax 1.1%) was 31 nM.

For the sequence “GGAGAGAAGGAGGGAAGAGAGAAAAAAAACAUAGGGAACCCAGGUGAUUGGGGCAAGCGACACAAAGCCCGG [15F3]”, the dissociation constant Kd came to 13 nM in data set [3] and 19 nM in data set [2] (every U is 2'-F-5-ethynyl-U clicked to Man9-cyclohexyl azide (4 glycans), room temperature, Fbmax 3.8%).

In general, Kd refers to the free concentration of one partner at which half of the binding sites on the other are occupied at equilibrium, for simple one-to-one binding. A high value points to a looser complex.

(Values after patent US20250281598.)
